In patent US20210395344A1 (TWIST BIOSCIENCE, published 2021):
Residue numbers refer to the chain shown, from its start.

B1: 1-21 (antibody, V domains shown)
VH: EVQLLESGGGLVQPGGSLRLSCAASGFTFSSYTMSWVRQAPGKGLEWVSIISGSGGSTYYADSVKGRFTISRDNSKNTLYLQMNSLRAEDTAVYYCAREGYRDYLWYFDLWGQGTLVTVSS
VL: QSALTQPASVSGSPGQSITISCTGTSSDVGSNNLVSWYQQHPGKAPKLMIYEGNKRPSGVSNRFSGSKSGNTASLTISGLQAEDEADYYCCSYAGSVVFGGGTKLTVL
B2: 1-24 (antibody, V domains shown)
VH: B1 VH with T33A, S35N
VL: QSALTQPASVSGSPGQSITISCTGTSSDVGYYNLVSWYQQHPGKAPKLMIYEGNKRPSGVSNRFSGSKSGNTASLTISGLQAEDEADYYCCSYAGGSVVFGGGTKLTVL
B3: 1-22 (antibody, V domains shown)
VH: B1 VH with T33A, S35N
VL: B2 VL with S27T, Y31S, N54S, K55Q, G96S, V98T
B4: 1-51 (antibody, V domains shown)
VH: B1 VH with T33A, I50V
VL: B2 VL with Y31S, N33D, G96S
B5: 1-30 (antibody, V domains shown)
VH: EVQLLESGGGLVQPGGSLRLSCAASGFTFSSYAMTWVRQAPGKGLEWVSAISGSGGSTFYADSVKGRFTISRDNSKNTLYLQMNSLRAEDTAVYYCTRPPYGDYGDYWGQGTLVTVSS
VL: QSALTQPASVSGSPGQSITISCTGTSRDVGSYNLVSWYQQHPGKAPKLMIYEGTKRPSGVSNRFSGSKSGNTASLTISGLQAEDEADYYCCSYAGSRTPVVFGGGTKLTVL
B6: 1-10 (antibody, V domains shown)
VH: EVQLLESGGGLVQPGGSLRLSCAASGFTFSSYDMSWVRQAPGKGLEWVSVISGSGGSTYYADSVKGRFTISRDNSKNTLYLQMNSLRAEDTAVYYCAKGPLVGWYFDLWGQGTLVTVSS
VL: B5 VL with R27S, D28N, R97S, T98S, P99F
B7: 1-26 (antibody, V domains shown)
VH: EVQLLESGGGLVQPGGSLRLSCAASGFTFSSYAISWVRQAPGKGLEWVSAISGSGYSTYYADSVKGRFTISRDNSKNTLYLQMNSLRAEDTAVYYCARGAPDSSGYYFQGEVYFDYWGQGTLVTVSS
VL: B5 VL with R27S, S31G, Y93F, A94V, G95R, R97S, T98A, P99H
B8: 1-5 (antibody, V domains shown)
VH: EVQLLESGGGLVQPGGSLRLSCAASGFTFSSQAMSWVRQAPGKGLEWVSAISGSGGGTYYADSVKGRFTISRDNSKNTLYLQMNSLRAEDTAVYYCAKDRRFGEFDPWGQGTLVTVSS
VL: B5 VL with R27S, D28G, G53A, T54S, R97Y, P99F, V100A
B9: 1-9 (antibody, V domains shown)
VH: B6 VH
VL: B5 VL with R27S, S31D, T54S, K55N, R97S, T98S, P99F
B10: 1-7 (antibody, V domains shown)
VH: B6 VH
VL: B5 VL with R27S, V29F, T54N, R97S, P99F
B11: 1-3 (antibody, V domains shown)
VH: B8 VH
VL: B5 VL with T25I, R27S, R97S, T98S, P99F
B12: 1-52 (antibody, V domains shown)
VH: EVQLLESGGGLVQPGGSLRLSCAASGFTFSNYAMSWVRQAPGKGLEWVSAISGSAGSTYYADSVKGRFTISRDNSKNTLYLQMNSLRAEDTAVYYCARVRQGLRRTWYYFDYWGQGTLVTVSS
VL: B2 VL with Y31S, Y32S, N54S, G96S, S97L, V98Y
B13: 1-8 (antibody, V domains shown)
VH: B6 VH
VL: QSALTQPASVSGSPGQSITISCTGTSNDVGSYNLVSWYQQHPGKAPKLMIYEGSKRPSGVSNRFSGSKSGNTASLTISGLQAEDEADYYCCSYAGSRYVVFGGGTKLTVL
B14: 1-47 (antibody, V domains shown)
VH: B8 VH
VL: B5 VL with R27S, D28G, T54I, R97S, T98S, P99F
notes: also called variant 1-47
B15: 1-32 (antibody, V domains shown)
VH: B5 VH with T35Y
VL: QSALTQPASVSGSPGQSITISCTGTSSDVGGYNLVSWYQQHPGKAPKLMIYEGNKRPSGVSNRFSGSKSGNTASLTISGLQAEDEADYYCCSYAGSSTFPVVFGGGTKLTVL
notes: also called variant 1-32

Biological target: T1, SARS-CoV-2 Spike Glycoprotein S1 (subunit 1) (SARS-CoV-2, UniProt P0DTC2 16-685)
T1 construct: also called S1 Monomer; SARS-CoV-2 S1
Assay: screening phage ELISA, mean

Binder | ELISA (Avg)
B1 | 47.6
B2 | 32.9
B3 | 40.6
B4 | 7.1
B5 | 29.5
B6 | 16.9
B7 | 19.5
B8 | 20.6
B9 | 18.5
B10 | 22.5
B11 | 23.9
B12 | 3.5
B13 | 19.3

Biological target: T1, SARS-CoV-2 Spike Glycoprotein S1 …
Assay: column Inhibitor IC50 (assay not explained)

Binder | IC50 [nM]
B1 | 6.7
B3 | 73.2
B5 | 25.3
B6 | 17.7
B7 | 8
B9 | 282
B11 | 15.7
B12 | 740
B13 | 97.3

Biological target: T1, SARS-CoV-2 Spike Glycoprotein S1 …
Assay: ELISA binding titration

Binder | EC50 [nM]
B3 | 6.55
B4 | 98.2
B7 | 48.5
B8 | 7.83
B10 | 95.7
B11 | 0.133

Biological target: T2, SARS-CoV-2 S1 (antigen of the Carterra SPR kinetics) (SARS-CoV-2, UniProt P0DTC2 16-685)
Assay: Carterra SPR

Binder | koff [s⁻¹] | kon [M⁻¹ s⁻¹]
B14 | 0.24 | 6320
B15 | 0.317 | 5.49e+06

Biological target: T3, COVID S1 RBM Fc fusion (Antigen 2) (SARS-CoV-2, UniProt P0DTC2 437-508)
T3 construct: domain: RBM
Assay: phage ELISA

Binder | ELISA fold over background [fold over background]
B14 | 0.9
B15 | 1.1

Biological target: T4, COVID S1 RBD Fc fusion (Antigen 1) (SARS-CoV-2, UniProt P0DTC2 319-541)
T4 construct: domain: RBD
Assay: phage ELISA

Binder | ELISA fold over background [fold over background]
B14 | 5.5

Biological target: T5, S1-Fc (SARS-CoV-2, UniProt P0DTC2 16-685)
Assay: phage ELISA

Binder | ELISA fold over background [fold over background]
B14 | 1.2
B15 | 4

Biological target: T2, SARS-CoV-2 S1 (antigen of the Carterra …)
Assay: Carterra SPR
Remark: another data set of the same source

Binder | Kd [nM] | koff [s⁻¹] | kon [M⁻¹ s⁻¹]
B14 | 38000 | 0.24 | 6320
B15 | 57.8 | 0.317 | 5.49e+06

Biological target: T1, SARS-CoV-2 Spike Glycoprotein S1 …
Assay: column DC/S1 (format not explained)

Binder | Kd [nM]
B2 | 2040
B5 | 4.7
B11 | 253

Biological target: T3, COVID S1 RBM Fc fusion (Antigen 2)
Assay: phage ELISA
Remark: another data set of the same source

Binder | ELISA fold over background [fold over background]
B14 | 0.9
B15 | 1.1

Biological target: T4, COVID S1 RBD Fc fusion (Antigen 1)
Assay: phage ELISA
Remark: another data set of the same source

Binder | ELISA fold over background [fold over background]
B14 | 5.5

Biological target: T5, S1-Fc
Assay: phage ELISA
Remark: another data set of the same source

Binder | ELISA fold over background [fold over background]
B14 | 1.2
B15 | 4

Biological target: T1, SARS-CoV-2 Spike Glycoprotein S1 …
Assay: screening phage ELISA, mean
Remark: another data set of the same source

Binder | ELISA (Avg)
B1 | 47.6
B2 | 32.9
B3 | 40.6
B4 | 7.1
B5 | 29.5
B6 | 16.9
B7 | 19.5
B8 | 20.6
B9 | 18.5
B10 | 22.5
B11 | 23.9
B12 | 3.5
B13 | 19.3
